Measured values: publication PMC3695523, “Reconstitution and characterization of eukaryotic N6-threonylcarbamoylation of tRNA using a minimal enzyme system” (Nucleic Acids Research, 2013)
Numbering of substitutions follows the chain as printed. Names may count otherwise.

How the values were obtained:
[1] = biological target: the molecule itself; test: crystal structure; Qri7 30-407 at 10 mg/ml, 0.1 M Tris-HCl pH 7.5, 8% PEG8000, 0.2 M MgCl2, 4°C; homodimer by crystallographic symmetry
[2] = biological target: the molecule itself; test: AUC; sedimentation velocity, 20°C, 42 000 rpm, 0.3125, 0.0625, 0.125, 0.250, 0.5 or 1 mg/ml protein
[3] = biological target: the molecule itself; test: AUC; dimerization dissociation constants of the interface mutants (Supplementary Figure S5B); whether from equilibrium or velocity runs is not stated; 20°C; dimer to monomers
[4] = biological target: the molecule itself; test: AUC; sedimentation equilibrium, 20°C, 0.25, 0.5 and 1 mg/ml, 10 000, 12 000, 15 000 rpm; fitted to a monomer-dimer model; dimer to monomers

B1: Saccharomyces cerevisiae Qri7 (amino acids 30-407), crystallised form (enzyme, UniProt P43122 30-407, looked up)
chain: RKGYKVLAIETSCDDTCVSVLDRFSKSAAPNVLANLKDTLDSIDEGGIIPTKAHIHHQARIGPLTERALIESNAREGIDLICVTRGPGMPGSLSGGLDFAKGLAVAWNKPLIGVHHMLGHLLIPRMGTNGKVPQFPFVSLLVSGGHTTFVLSRAIDDHEILCDTIDIAVGDSLDKCGRELGFKGTMIAREMEKFINQDINDQDFALKLEMPSPLKNSASKRNMLSFSFSAFITALRTNLTKLGKTEIQELPEREIRSIAYQVQESVFDHIINKLKHVLKSQPEKFKNVREFVCSGGVSSNQRLRTKLETELGTLNSTSFFNFYYPPMDLCSDNSIMIGWAGIEIWESLRLVSDLDICPIRQWPLNDLLSVDGWRTDQL
modifications: seleno-methionine (a seleno-methionine crystal data set was collected)
notes: One protomer in the asymmetric unit; the homodimer is made by crystallographic symmetry; also called scQri7; not shown: His6, N-terminal, cleaved
B1: binds [1].

B2: Qri7 (30-407) I77E (enzyme, yeast (Saccharomyces cerevisiae), UniProt P43122 30-407, looked up)
chain: B1 chain with I48E
notes: Qri7, S. cerevisiae, amino acids 30-407, catalytic cleft mutant; source: E. coli BL21 (DE3) CodonPlus, purified (Ni-NTA or glutathione sepharose, SEC)
For B2, the “stoichiometry N” value [2] was 2.

B3: Qri7 (30-407) D44A (enzyme, yeast (Saccharomyces cerevisiae), UniProt P43122 30-407, looked up)
chain: B1 chain with D15A
notes: as for B2
With B3 the “stoichiometry N” value [2] was 2.

B4: Qri7 (30-407) R104A (enzyme, yeast (Saccharomyces cerevisiae), UniProt P43122 30-407, looked up)
chain: B1 chain with R75A
notes: Qri7, S. cerevisiae, amino acids 30-407, dimer interface mutant; also called R104A mutant; source: E. coli BL21 (DE3) CodonPlus, purified (Ni-NTA or glutathione sepharose, SEC)
B4 gave a Kd [3] of 3000 ± 300 nM.

B5: Qri7 (30-407) D43A (enzyme, yeast (Saccharomyces cerevisiae), UniProt P43122 30-407, looked up)
chain: B1 chain with D14A
notes: as for B2
In the case of B5, the “stoichiometry N” value [2] is reported as 2.

B6: Qri7 (30-407) S258A (enzyme, yeast (Saccharomyces cerevisiae), UniProt P43122 30-407, looked up)
chain: B1 chain with S229A
notes: as for B2
B6 was tested, and the “stoichiometry N” value [2] was 2.

B7: Qri7 (30-407) K130A (enzyme, yeast (Saccharomyces cerevisiae), UniProt P43122 30-407, looked up)
chain: B1 chain with K101A
notes: Qri7, S. cerevisiae, amino acids 30-407, dimer interface mutant; also called K130A mutant; source: E. coli BL21 (DE3) CodonPlus, purified (Ni-NTA or glutathione sepharose, SEC)
For B7, the Kd [3] was 2500 ± 200 nM.

B8: Qri7 (30-407) R207A (enzyme, yeast (Saccharomyces cerevisiae), UniProt P43122 30-407, looked up)
chain: B1 chain with R178A
notes: as for B2
For B8, the “stoichiometry N” value [2] was 2.

B9: Qri7 (residues 30-407), wild type, as used for analytical ultracentrifugation (enzyme, yeast (Saccharomyces cerevisiae), UniProt P43122 30-407, looked up)
chain: B1 chain
notes: Qri7, S. cerevisiae, amino acids 30-407; also called wild-type Qri7; source: E. coli BL21 (DE3) CodonPlus, purified (Ni-NTA or glutathione sepharose, SEC)
In the case of B9, the “stoichiometry N” value [2] is reported as 2 and the Kd [4] is reported as 60 nM.
